Patent US20100099619A1

Target: neuropeptide Y4 receptor
Assay: competition vs [125I]-hPP, Y4-transfected CHO-K1 membranes

Chain of neuropeptide Y4 receptor (P50391 whole entry): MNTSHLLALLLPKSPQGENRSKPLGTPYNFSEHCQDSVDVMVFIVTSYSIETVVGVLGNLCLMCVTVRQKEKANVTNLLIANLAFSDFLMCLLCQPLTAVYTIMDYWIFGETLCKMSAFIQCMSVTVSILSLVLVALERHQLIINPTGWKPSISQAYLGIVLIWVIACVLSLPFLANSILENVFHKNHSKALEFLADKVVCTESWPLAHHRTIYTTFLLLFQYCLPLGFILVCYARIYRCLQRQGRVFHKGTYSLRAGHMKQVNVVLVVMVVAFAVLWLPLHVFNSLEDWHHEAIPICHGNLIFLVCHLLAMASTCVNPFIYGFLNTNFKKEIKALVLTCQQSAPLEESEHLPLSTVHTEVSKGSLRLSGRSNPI

Substance	Y4 RBA [nM]
NPY (human neuropeptide Y) (peptide; modification not given)	39
PYY (human peptide YY) (peptide; modification not given)	4.5
PYY(3-36) (peptide; modification not given)	54
